Like-named read-outs stand apart in the source and are kept apart here.

Assay [1] concerns the target T1, human 4-1BB His protein (Sinobiological, Beijing #10041-H08H) (human, UniProt Q07011 24-186, biotinylated in the capture ELISA (sites not given)).
T1 construct: Bought protein; also called biotinylated 4-1BB-his protein; not shown: His tag
Kind of assay: capture ELISA, antibody captured, biotinylated 4-1BB-his. The protocol:
The goat anti-mouse IgG secondary antibody (Jackson Immuno Research, cat #115-006-071) was diluted to a concentration of 2 μg/ml with PBS buffer, pH 7.4, added into a 96-well microtiter plate at 100 μl/well, and placed in an incubator at 37° C. for 2 hours. The plate was washed once with PBST, 200 μl/well of 5% skim milk (skim milk powder, Bright Dairy) blocking solution diluted with PBST was added, and incubated at 37° C. for 2 hours or at 4° C. overnight (16-18 hours) for blocking. After the blocking was finished, the blocking solution was discarded and the plate was washed 4 times with PBST.
The test mouse sera or antibodies were diluted to various concentrations with 5% NHS sample dilution solution (2.5% skim milk in PBST), incubated at room temperature for 40 minutes, added into the plate at 100 μl/well, and incubated at 37° C. for 40 minutes. After the incubation, the plate was washed 4 times with PBST, 100 μl/well of the biotinylated 4-1BB-his protein (Sinobiological, Beijing #10041-H08H) diluted with the sample dilution solution was added, and incubated at 37° C. for 40 minutes. After the incubation, the plate was washed 4 times with PBST, 100 μl/well of HRP-labeled streptavidin (Jackson Immuno Research, cat #016-030-084) diluted with PBST was added, and incubated at 37° C. for 40 minutes. The plate was washed 4 times with PBST, 100 μl/well of TMB chromogenic substrate (Huzhou Innoreagents Biotechnology Co., Ltd.) was added, incubated at room temperature for 10-15 min in the dark, and 50 μl/well 1M H₂SO₄ was added to terminate the reaction. The absorbance was read at 450 nm under a microplate reader (Beijing Prang New Technology Co., Ltd., Model DNM-9602) and the resulting data were analyzed. The capture ELISA results of three hybridoma mouse antibodies and the Pfizer reference antibody MOR7480 and the BMS reference antibody Urelumab were shown in FIG. 1.
On the technique in general: In an ELISA, binding on a coated surface is turned into a signal by an enzyme label.

Assay [2] concerns the target T1, human 4-1BB His protein …. Description: SPR Biacore T200, antibody amine-coupled, 4-1BB His as analyte, 1:1 model. The protocol:
(§1) The recombinant anti-4-1BB antibodies to be tested of the present application were covalently linked to CMS (GE) chip by NHS standard amino coupling method with a kit available from Biacore. Then, a series of gradient concentrations of human 4-1BB His protein (Sinobiological, Beijing #10041-H08H) diluted in the same buffer were injected at a flow rate of 10 μL/min. Regeneration was performed with regeneration reagents provided in the kit. Antigen-antibody binding kinetics were followed for 3 minutes and dissociation kinetics were followed for 10 minutes. The resulting data were analyzed using 1:1 (Langmuir) binding model with BIAevaluation software available from GE.

Assay [3] concerns the target T1, human 4-1BB His protein …. The description is as above. The protocol:
as §1
This is another data set of the same source.

The target of assay [4] is human 4-1BB on the reporter cell strain HEK293F-h4-1BB-NFkB (human, UniProt Q07011 24-255). Kind of assay: cell-based or functional assay.
Assay [5] has as its target T1, human 4-1BB His protein …. Description: blocking ELISA: 4-1BB-his coated, antibody varied, competitor 4-1BBL-Fc at 0.8 ng/ml. The protocol:
The 4-1BB-his protein was diluted to a concentration of 2 μg/ml with a carbonate buffer pH 9.6, and added into a 96-well microtiter plate at a volume of 100 μl/well, and placed in an incubator at 37° C. for 2 hours. The plate was washed once with PBST, 200 μl/well of 5% skim milk (skim milk powder, Bright Dairy) blocking solution diluted with PBST was added, and incubated at 37° C. for 2 hours or at 4° C. overnight (16-18 hours) for blocking. After the blocking was finished, the blocking solution was discarded and the plate was washed 4 times with PBST.
The test mouse sera or antibodies and internal control 4-1BBL were diluted to various concentrations with a sample diluent solution (2.5% skim milk in PBST), added into a plate at 100 μl/well, and incubated in an incubator at 37° C. for 40 minutes. After the incubation, the plate was washed 4 times with PBST, 100 μl/well of 0.8 ng/ml 4-1BBL-Fc (Acro, #41L-H5257) protein diluted with a sample dilution solution was added, and incubated at 37° C. for 40 minutes. […] The absorbance was read at 450 nm under a microplate reader (Beijing Prang New Technology Co., Ltd., Model DNM-9602) and the resulting data were analyzed. […]

The target in assay [6] is T1, human 4-1BB His protein …. Description: SPR Biacore T200. For orientation: In SPR one partner is held on a chip, and binding of the other changes the refractive index at the surface.

Chain of human 4-1BB on the reporter cell strain HEK293F-h4-1BB-NFkB (Q07011 24-255): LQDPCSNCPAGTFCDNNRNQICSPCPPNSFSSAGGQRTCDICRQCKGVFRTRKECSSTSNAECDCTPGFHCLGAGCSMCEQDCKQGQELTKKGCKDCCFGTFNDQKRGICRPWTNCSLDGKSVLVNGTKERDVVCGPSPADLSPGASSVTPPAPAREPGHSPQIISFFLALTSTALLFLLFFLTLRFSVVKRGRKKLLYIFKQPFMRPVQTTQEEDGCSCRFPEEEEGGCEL

B1: MOR7480 (Pfizer) (antibody, V domains shown)
VH: QVQLVQSGAEVKKPGESLKISCKGSGYSFSTYWISWVRQMPGKGLEWMGKIYPGDSYTNYSPSFQGQVTISADKSISTAYLQWSSLKASDTAMYYCARGYGIFDYWGQGTLVTVSS
VL: DIELTQPPSVSVAPGQTARISCSGDNIGDQYAHWYQQKPGQAPVVVIYQDKNRPSGIPERFSGSNSGNTATLTISGTQAEDEADYYCATYTGFGSLAVFGGGTKLTVL
In the case of B1, a half-maximal effect in assay [1] (EC50) was put at 0.084 µg/mL. In assay [2], binding was characterised by a dissociation constant (Kd) of 417 pM, the koff came to 0.000336 s⁻¹ and the kon turned out to be 805000 M⁻¹ s⁻¹. In assay [3], this molecule came in with a Kd of 417 pM, a koff of 0.000336 s⁻¹ and a kon of 805000 M⁻¹ s⁻¹.

B2: murine mAb B1A7 (antibody, V domains shown)
VH: QVTLKESGPGILQPSQTLSLTCSFSGFSLSTSGMGVGWIRQPSGKGLEWLAHIWWDDVKRYNPALKSRLTISKDTSSSQVFLKIASVDTADTATYYCAQMTSSVFAYWGQGTLVTVSA
VL: DIVLTQSPDSLAVSLGQRATISCRASESVDSYGHSFMHWYQQKPGQPPKLLIYRASNLESGIPARFSGSGSRTDFTLTINVVEADDVATYYCHQSYEEPWTFGGGTKLEIK
notes: Murine hybridoma antibody
B2 registered a luciferase activity in assay [4] of 965. Besides, the results for the EC50 in assay [1] and in assay [5] were 0.0559 µg/mL and 0.417 µg/mL, respectively.

B3: murine mAb B1E10 (antibody, V domains shown)
VH: EVQLVESGGGLVEPGGSLKLSCAASGFTFGDYYMYWVRQTPEKRLEWVATISDGGSYTYYPDNVKGRFTISRDNAKNSLDLQMSHLKSEDTAMYYCARYYSKALYAMDYWGRGTSVTVSS
VL: DIVLTQSPASLAVSLGQRATLSCRASKSVSTSGFSYIHWYQQKPGQPPKLLIYTASNLESGVPARFSGSGSGTDFTLNIHPVEEEDAATYYCQHSRELPLTFGAGTKLEVK
notes: Murine hybridoma antibody
Consider B3, for which the luciferase activity in assay [4] is 2520. The same molecule displayed an EC50 in assay [1] of 0.881 µg/mL.

B4: chimeric antibody ChB1E10 (antibody, V domains shown)
VH: B3 VH
VL: B3 VL
In assay [2], B4 came in with a Kd of 423 pM, a koff of 0.000542 s⁻¹ and a kon of 1.28e+06 M⁻¹ s⁻¹.

B5: humanized antibody huB1E10 (VH-c heavy chain and VL-c light chain) (antibody, human IgG2, kappa, V domains shown)
VH: EVQLVESGGGVVQPGRSLRLSCAASGFTFGDYYMYWVRQAPGKGLEWVATISEGGSYTYYPDNVKGRFTISRDNAKNTLYLQMNSLRAEDTAVYYCARYYSKALYAMDYWGRGTLVTVSS
VL: EIVLTQSPATLSLSPGERATLSCRASKSVSTSGFSYIHWYQQKPGQPPRLLIYTASNLESGVPARFSGSGSGTDFTLTISSLEPEDFAVYYCQHSRELPLTFGQGTKLEVKR
notes: also called huB1E10-IgG1
As for B5, the “fold affinity against the reference antibody MOR7480” value in assay [6] was around 2 fold. Besides, in assay [3], the Kd is 267 pM, the koff came to 0.00263 s⁻¹ and the kon came to 9.85e+06 M⁻¹ s⁻¹.

B6: humanized antibody huB1E7 (VH-c heavy chain and VL-c light chain) (antibody, human IgG2, kappa, V domains shown)
VH: EVQLVQSGAEVKKPGSSVKVSCKASGYTFTSYGLNWVRQAPGQGLEWMGYINPGSGYTKYNEKFEGRVTITADKSTSTAYMELSSLRSEDTAVYYCARWGLGRNWNFAVWGQGTLVTVSS
VL: DIVMTQSPDSLAVSLGERATINCRASESVDSYGNTFMHWYQQKPGQPPKLLIYRASNLESGVPDRFSGSGSGTDFTLTISSLQAEDVAVYYCQQSNEDPLTFGQGTKLEIKR
notes: also called huB1E7-IgG1
In assay [3], B6 gave a dissociation constant Kd of 1950 pM, an off-rate (koff) of 0.00663 s⁻¹ and a kon of 3.39e+06 M⁻¹ s⁻¹.

B7: murine mAb B1E7 (antibody, V domains shown)
VH: EVQLQQSGAELVRAGSSVEMSCKASGYTFTSYGLNWVKQRPGQGLEWIGYINPGSGYTKYNEKFEGKTTLTVDKSSSTVYMQLRSLTSEDSAVYFCARWGLGRNWNFAVWGTGTTVTVSS
VL: DIVLTQSPASLAVSLGQRATMSCRASESVDSYGNTFMHWYQQKPGQPPKLLIYRASNLESGIPARFSGSGSGTDFTLTINPVEADDVATYYCQQSNEDPLTFGSGTKLEIK
notes: Murine hybridoma antibody
In turn, B7 yielded a luciferase activity in assay [4] of 1100. Besides, the values for the EC50 in assay [1] and in assay [5] were 0.332 µg/mL and 0.592 µg/mL, respectively.

B8: chimeric antibody ChB1E7 (antibody, V domains shown)
VH: B7 VH
VL: B7 VL
In assay [2], B8 yielded a Kd of 1480 pM, a koff of 0.006 s⁻¹ and an association rate constant (kon) of 4.05e+06 M⁻¹ s⁻¹.

One may read the EC50 as the concentration giving half of the maximal effect. Read a high EC50 as a less potent agent. Broadly, the Kd is the concentration at which binding is half-saturated. The low end stands for higher affinity, the high end for lower affinity. As a reminder, the koff is a measure of how fast the partners let go of each other. Higher therefore signals fast dissociation. By kon is commonly meant a measure of how fast the partners come together. Low values mean slower complex formation, high ones faster complex formation.

The values are drawn from patent US20210363266A1 (JIANGSU HENGRUI MEDICINE, published 2021).
